Values quoted from earlier work as cited in article PMC5053023.
pKd: −log10 of the molar value.

Target: SRSF1 RS domain (Homo sapiens) (UniProt Q07955)
Sequence of UniProt Q07955 (Q07955 198-248): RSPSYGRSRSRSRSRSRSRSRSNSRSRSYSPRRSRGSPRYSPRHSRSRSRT

pKd: 7.00
Substance: SRPK1 (from UniProt Q96SB4)
